Key:
Experiment in all cases: cell-based or functional assay
[1] = target: TSHR with Asp232 mutated to Ala expressed in CHO cells (human) (UniProt P16473)
[2] = target: TSHR with Lys250 mutated to Ala (expressed in CHO cells) (human) (UniProt P16473)
[3] = target: TSHR with Ser281 mutated to Ala, expressed in CHO cells (human) (UniProt P16473)
[4] = target: TSHR with Lys183 mutated to Asp expressed in CHO cells (human) (UniProt P16473)
[5] = target: TSHR with Phe130 mutated to Ala, expressed in CHO cells (human) (UniProt P16473)

Cyclic AMP produced, mutated TSHR, TSH 0.1 ng/mL (Experiment 2) [1]: 9.44 pmol/mL
Cyclic AMP produced, mutated TSHR, TSH 0.3 ng/mL (Experiment 1) [1]: 15.1 pmol/mL
Cyclic AMP produced, mutated TSHR, TSH 0.3 ng/mL (Experiment 2) [1]: 23.5 pmol/mL
Cyclic AMP produced, mutated TSHR, TSH 1 ng/mL (Experiment 1) [1]: 31.9 pmol/mL
Cyclic AMP produced, mutated TSHR, TSH 1 ng/mL (Experiment 2) [1]: 44.4 pmol/mL
Cyclic AMP produced, mutated TSHR, TSH 3 ng/mL (Experiment 1) [1]: 41 pmol/mL
Cyclic AMP produced, mutated TSHR, TSH 3 ng/mL (Experiment 2) [1]: 62 pmol/mL
Mutated/Wild type (%) of cyclic AMP produced, TSH 0.01 ng/mL, Experiment 1 [1]: 83%
Mutated/Wild type (%) of cyclic AMP produced, TSH 0.01 ng/mL, Experiment 2 [1]: 62%
Mutated/Wild type (%) of cyclic AMP produced, TSH 0.03 ng/mL, Experiment 1 [1]: 88%
Mutated/Wild type (%) of cyclic AMP produced, TSH 0.03 ng/mL, Experiment 2 [1]: 83%
Mutated/Wild type (%) of cyclic AMP produced, TSH 0.1 ng/mL, Experiment 1 [1]: 87%
Mutated/Wild type (%) of cyclic AMP produced, TSH 0.1 ng/mL, Experiment 2 [1]: 84%
Mutated/Wild type (%) of cyclic AMP produced, TSH 0.3 ng/mL, Experiment 1 [1]: 80%
Mutated/Wild type (%) of cyclic AMP produced, TSH 0.3 ng/mL, Experiment 2 [1]: 75%
Mutated/Wild type (%) of cyclic AMP produced, TSH 1 ng/mL, Experiment 1 [1]: 70%
Mutated/Wild type (%) of cyclic AMP produced, TSH 1 ng/mL, Experiment 2 [1]: 60%
Mutated/wild type (%) of cyclic AMP produced; TSH 3 ng/mL; Experiment 1 [1]: 66%
Mutated/wild type (%) of cyclic AMP produced; TSH 3 ng/mL; Experiment 2 [1]: 64%
Cyclic AMP produced, TSH 0.01 ng/mL [2]: 8.29 pmol/mL
Cyclic AMP produced, TSH 0.03 ng/mL [2]: 12.6 pmol/mL
Cyclic AMP produced, TSH 0.1 ng/mL [2]: 28.8 pmol/mL
Cyclic AMP produced, TSH 0.3 ng/mL [2]: 66.2 pmol/mL
Cyclic AMP produced, TSH 1 ng/mL [2]: 87.9 pmol/mL
Cyclic AMP produced; TSH 3 ng/mL [2]: 110 pmol/mL
Mutated/Wild type (%) of cyclic AMP produced, TSH 0.01 ng/mL [2]: 207%
Mutated/Wild type (%) of cyclic AMP produced, TSH 0.03 ng/mL [2]: 189%
Mutated/Wild type (%) of cyclic AMP produced, TSH 0.1 ng/mL [2]: 147%
Mutated/Wild type (%) of cyclic AMP produced, TSH 0.3 ng/mL [2]: 147%
Mutated/Wild type (%) of cyclic AMP produced, TSH 1 ng/mL [2]: 116%
Mutated/wild type (%) of cyclic AMP produced; TSH 3 ng/mL [2]: 126%
% inhibition of TSH stimulation; TSH (2) (run at the end of assay, against the first TSH sample); Experiment 1 [3]: 19%
% inhibition of TSH stimulation; TSH (2) (run at the end of assay, against the first TSH sample); Experiment 2 [3]: 4%
Cyclic AMP produced (pmol/mL), TSH 0.01 ng/mL, mutated TSHR [3]: 2.84 pmol/mL
Cyclic AMP produced (pmol/mL), TSH 0.03 ng/mL, mutated TSHR [3]: 4.69 pmol/mL
Cyclic AMP produced (pmol/mL), TSH 0.1 ng/mL, mutated TSHR [3]: 11.3 pmol/mL
Cyclic AMP produced (pmol/mL), TSH 0.3 ng/mL, mutated TSHR [3]: 27.5 pmol/mL
Cyclic AMP produced (pmol/mL), TSH 1 ng/mL, mutated TSHR [3]: 51.6 pmol/mL
Cyclic AMP produced (pmol/mL), TSH 3 ng/mL, mutated TSHR [3]: 68 pmol/mL
Mutated/Wild type (%), TSH 0.01 ng/mL [3]: 140%
Mutated/Wild type (%), TSH 0.03 ng/mL [3]: 128%
Mutated/Wild type (%), TSH 0.1 ng/mL [3]: 117%
Mutated/Wild type (%), TSH 0.3 ng/mL [3]: 88%
Mutated/Wild type (%), TSH 1 ng/mL [3]: 85%
Mutated/Wild type (%), TSH 3 ng/mL [3]: 82%
Mutated/wild type (%) of cyclic AMP produced; test sample TSH (3 ng/mL); Experiment 1 [3]: 79%
Mutated/wild type (%) of cyclic AMP produced; test sample TSH (3 ng/mL); Experiment 2 [3]: 92%
Mutated/wild type (%) of cyclic AMP produced; test sample TSH (2) (3 ng/mL, run at the end of assay); Experiment 1 [3]: 57%
Mutated/wild type (%) of cyclic AMP produced; test sample TSH (2) (3 ng/mL, run at the end of assay); Experiment 2 [3]: 79%
Cyclic AMP produced (pmol/mL), mutated TSHR, TSH 0.01 ng/mL [4]: 4.08 pmol/mL
Cyclic AMP produced (pmol/mL), mutated TSHR, TSH 0.03 ng/mL [4]: 7.18 pmol/mL
Cyclic AMP produced (pmol/mL), mutated TSHR, TSH 0.1 ng/mL [4]: 19.1 pmol/mL
Cyclic AMP produced (pmol/mL), mutated TSHR, TSH 0.3 ng/mL [4]: 51.7 pmol/mL
Cyclic AMP produced (pmol/mL), mutated TSHR, TSH 1 ng/mL [4]: 93.3 pmol/mL
Cyclic AMP produced (pmol/mL), mutated TSHR, TSH 3 ng/mL [4]: 106 pmol/mL
Mutated/Wild type (%), TSH 0.01 ng/mL [4]: 165%
Mutated/Wild type (%), TSH 0.03 ng/mL [4]: 155%
Mutated/Wild type (%), TSH 0.1 ng/mL [4]: 109%
Mutated/Wild type (%), TSH 0.3 ng/mL [4]: 128%
Mutated/Wild type (%), TSH 1 ng/mL [4]: 101%
Mutated/Wild type (%), TSH 3 ng/mL [4]: 102%
Cyclic AMP produced, TSH 0.01 ng/mL, mutated TSHR [5]: 3.05 pmol/mL
Cyclic AMP produced, TSH 0.03 ng/mL, mutated TSHR [5]: 4.12 pmol/mL
Cyclic AMP produced, TSH 0.1 ng/mL, mutated TSHR [5]: 9.61 pmol/mL
Cyclic AMP produced, TSH 0.3 ng/mL, mutated TSHR [5]: 35.6 pmol/mL
Cyclic AMP produced, TSH 1 ng/mL, mutated TSHR [5]: 66.2 pmol/mL
Cyclic AMP produced, TSH 3 ng/mL, mutated TSHR [5]: 80.4 pmol/mL
Mutated/Wild type (%), TSH 0.01 ng/mL [5]: 134%
Mutated/Wild type (%), TSH 0.03 ng/mL [5]: 109%
Mutated/Wild type (%), TSH 0.1 ng/mL [5]: 101%
Mutated/Wild type (%), TSH 0.3 ng/mL [5]: 124%
Mutated/Wild type (%), TSH 1 ng/mL [5]: 86%
Mutated/Wild type (%), TSH 3 ng/mL [5]: 86%
Substance: TSH (ligand)

Source: patent US20110300138A1 (published 2011)
